Results: patent publication US11123408B2, “Compositions and methods for treating nonsteroidal anti-inflammatory drug (NSAID) associated coagulopathy, thrombocytopenia, glanzmann's thrombasthenia, and/or thrombosis” (YALE UNIVERSITY, priority 2011, dated 2021)
“Also recorded” adds a separate entry of the source.

Columns and labels:
Assay type in all cases: cell-based, human
[1] = test system: platelets in platelet rich plasma; experiment: Lumi aggregometry (extracellular ATP, dense granule release) simultaneously with LTA
Method: (§1) Whole blood from healthy voluntary donors was collected in accordance with an IRB-approved protocol into blue top vacutainer tubes containing 3.2% sodium citrate. Blood was centrifuged at 1000 RPM for 10 minutes at room temperature to collect platelet rich plasma (PRP). PRP in the supernatant was then transferred to fresh tubes, and the remainder of the specimen was centrifuged at 4000 RPM for 10 minutes to obtain platelet poor plasma (PPP). PRP was adjusted to a final platelet count of 250×10^6 platelets/mL with autologous PPP for use in aggregation studies. Potential donors were excluded if there was a history of a bleeding disorder or current anticoagulant use and donors were instructed to avoid NSAIDs for at least 7 days prior to donation. Approval for the human subjects involved in this research was sought and granted by the Committee for the Protection of Human Subjects, Dartmouth-Hitchcock Medical Center, where these studies were conducted in accordance with the Declaration of Helsinki.
(§2) Light transmission (i.e., optical) and lumi aggregometry were performed on up to four samples from the same individual simultaneously with a Chrono-Log Model 700 Whole Blood/Optical Lumi Aggregometer (Chrono-Log Corporation, Havertown, Pa.) using procedures provided by the manufacturer that are briefly summarized here.
(§3) Platelet aggregation was determined by measuring the change in light transmittance of stirred PRP over time after addition of various agonists. Prior to each experiment the aggregometer was standardized to reflect 100% and 0% light transmittance with PPP and PRP, respectively, from the donor whose platelets were used in each specific experiment. 500 μL PRP was added to cuvettes containing a magnetic stir bar and allowed to pre-warm to 37° C. in the aggregometer wells for 3 minutes prior to initiating aggregation reactions which were then conducted at 37° C. Aggregation reactions were initiated by direct addition of agonists and/or enzymes to warmed, stirred PRP, and were monitored for an increase in light transmittance for 10 minutes. The increase in light transmittance is directly proportional to the amount of aggregation and is amplified and digitized into a computer (HP Compaq, Hewlett-Packard, Palo Alto, Calif.) with the AGGRO/LINK8 for Windows software (Chrono-Log Corporation, Havertown, Pa.) to generate aggregation curves. […] The platelet aggregometry experiments for all concentrations of MRS 2395 (including the 0 μM point) were conducted with the plasma adjusted to a final concentration of 10% DMSO to solubilize the inhibitor.
In a subgroup of experiments, lumi aggregometry was used to assay the levels of extracellular ATP simultaneously with LTA. Lumi aggregometry measures ATP in the extracellular space over time using a sensitive luminescent assay employing firefly luciferin-luciferase (CHRONO-LUME™ reagent, Chrono-Log Corporation, Havertown, Pa.). ATP binds to luciferin-luciferase and generates light that is then amplified by a high-gain photomultiplier tube in the lumi aggregometer and is measured simultaneously with the optical change in light transmittance caused by platelet aggregation. In experiments in which lumi aggregometry was performed, 450 μL of PRP was transferred to cuvettes containing magnetic stir bars and allowed to pre-warm to 37° C. in the aggregometer wells for 3 minutes. […] Reactions were initiated by the addition of agonists and/or enzymes to warmed PRP and CHRONOLUME′ reagent and were monitored for light generation. […]

[2] = test system: platelets exposed to NSAIDs; experiment: LTA in platelet-rich plasma from an individual who had consumed ibuprofen; conditions: 20 nM NPP4; 3 μM ADP; donor took 800 mg ibuprofen 12 hours before
Method: as §3
NPP4 rescues platelets exposed to NSAIDs. […]

[3] = test system: platelets in platelet rich plasma; experiment: Light transmission aggregometry (LTA) in platelet rich plasma
Method: as §1, §2, §3

B1: NPP4: soluble recombinant extracellular domain of human NPP4 (NCBI AAH18054.1, residues 1-407 of SEQ ID NO:1), expressed in insect cells (protein, listed as Homo sapiens)
chain: MKLLVILLFSGLITGFRSDSSSSLPPKLLLVSFDGFRADYLKNYEFPHLQNFIKEGVLVEHVKNVFITKTFPNHYSIVTGLYEESHGIVANSMYDAVTKKHFSDSNDKDPFWWNEAVPIWVTNQLQENRSSAAAMWPGTDVPIHDTISSYFMNYNSSVSFEERLNNITMWLNNSNPPVTFATLYWEEPDASGHKYGPEDKENMSRVLKKIDDLIGDLVQRLKMLGLWENLNVIITSDHGMTQCSQDRLINLDSCIDHSYYTLIDLSPVAAILPKINRTEVYNKLKNCSPHMNVYLKEDIPNRFYYQHNDRIQPIILVADEGWTIVLNESSQKLGDHGYDNSLPSMHPFLAAHGPAFHKGYKHSTINIVDIYPMMCHILGLKPHPNNGTFGHTKCLLVDQWCINLPEA
For B1, the “time to granule release” value ([1]; 100 nM NPP4 with 40 μM Ap3A) was ~1.5 min, the “platelet aggregation and dense granule (ATP) release, enzyme with Ap3A (qualitative)” value ([1]; 100 nM enzyme with 40 μM Ap3A) was “ATP release and platelet aggregation were simultaneously seen; also recorded: strong platelet aggregation and dense granule release” and the “effect on ADP-induced aggregation of NSAID-exposed platelets” value [2] was “normalization of ADP-induced aggregation”. For the same molecule, the maximum aggregation ([3]; 100 nM NPP4 at 80 μM Ap3A) was 80%, the maximum aggregation ([3]; 200 nM NPP4 at 80 μM Ap3A) was 90% and the “platelet aggregation response of enzyme in the presence of 80 μM Ap3A (qualitative)” value ([3]; 80 μM Ap3A, enzyme 50-200 nM) was “strong primary and secondary aggregation waves”. For the same molecule, the “platelet aggregation response, agent alone (qualitative)” value ([3]; agent alone in PRP (Ap3A up to 160 μM; NPP4 100 nM)) was “does not trigger platelet aggregation”.
